Assay results published in PMC4874009, “Super-resolution microscopy reveals structural diversity in molecular exchange among peptide amphiphile nanofibres” (Nature Communications, 2016).
The star is where a group is joined. Cy3 = disulfo-cyanine carboxylic acid dye; Cy5 = disulfo-cyanine carboxylic acid dye; Palmitoyl = CCCCCCCCCCCCCCCC(=O)*

T1: non-labelled peptide amphiphile (palmitic acid tail, six alanines, three glutamic acids)
T1 construct: designed peptide amphiphile, not a stretch of a natural protein; also called non-labelled PA; unlabelled PA; source: synthetic peptide (Fmoc solid-phase synthesis, purified by reversed-phase HPLC)
T1 peptide: Palmitoyl-AAAAAAEEE-NH2

B1: peptide amphiphile labelled with the sulfonated cyanine dye Cy3 (peptide)
peptide: Palmitoyl-AAAAAAEEEK(Cy3)-NH2
notes: designed peptide amphiphile; Made on MBHA rink amide resin, so the C-terminus is probably an amide (surmised); also called Cy3-PA; PA-Cy3; source: synthetic peptide (Fmoc solid-phase synthesis, purified by reversed-phase HPLC)

Key:
[1] = target: T1, non-labelled peptide amphiphile …; test: FRET or BRET; nanofibres co-assembled from non-labelled PA with Cy3-PA (1 mol%) and Cy5-PA (0, 0.1, 0.2 and 0.5 mol%); 10 mM HEPES pH 7.5, NaCl 150 mM, final PA concentration 0.5 mM; emission spectra at the Cy3 excitation wavelength 520 nm; conditions: both partners purified
[2] = target: B1; test: as above; conditions: both partners purified

| binding result [1] | binding result [2] | Binder |
| --- | --- | --- |
| binds | binds | Palmitoyl-AAAAAAEEEK(Cy5)-NH2 (designed peptide amphiphile; Made on MBHA rink amide resin, so the C-terminus is probably an amide (surmised); also called Cy5-PA; PA-Cy5; source: synthetic peptide (Fmoc solid-phase synthesis, purified by reversed-phase HPLC)) [peptide amphiphile labelled with the sulfonated cyanine dye Cy5] |
| binds |  | B1 |
